{"source": "the nanobody polyreactivity screen of Harvey et al. (2022)"}
{"assay": "yeast display, Sf9 membrane polyspecificity reagent, FACS + sequencing; frameworks hold sequencing errors", "method_in_brief": "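Genes from sorted yeast were amplified by colony PCR, read by MiSeq 2 × 250 sequencing and filtered on CDR length. These cells carried a synthetic nanobody library in Saccharomyces cerevisiae BJ5465 and were sorted by FACS into low and high (top ~1%) gates on anti-HA and streptavidin fluorescence. Polyreactivity is labelled according to the gate of origin.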"}
{"sequence": "QVQLVESGGGLVQAGGSLRLSCAASGSTFGWNAMGWYRQAPGKERELVAAISSSGGITYYADSVKGRFTISRDNAKNTVYLQMNSLKPEDSAVYYCAAERDDDWVNYWGQGTQVTVSS", "polyreactivity (PSR sort gate)": "low polyreactivity"}
{"sequence": "QVQLVESGGGLVQAGGSLRLSCAASGSTFGWYAIGWNRQAPGKERELVAAINSDGSTYYADSVKGRFTISRDNAKNNVYLQMNSLKPEDPAVYYCATDDALYGYLYHNYGYWGEGTQVTVSS", "polyreactivity (PSR sort gate)": "low polyreactivity"}
{"sequence": "QVQLVESGGGLVQAGGSLRLSCAASGSTFGWYAMGGYRQAPGKERELVAAISASGGATYYADSVKGRFTISRDNAKNTVYLQMNSLKPEDTAVYYCAAVRYPNWYDYWGQGTQVTVSS", "polyreactivity (PSR sort gate)": "high polyreactivity"}
{"sequence": "QVQLVESGGGLVQAGGSLRLSCAASGSTFGWYAMGWYRQAPGKEREFVAAIRGGGSSTYYADSVKGRFTISRDNAKNTVYFQMNSLKPEDTAVYYCAAVTSQLYGNRYYYWGQGTQVTVSS", "polyreactivity (PSR sort gate)": "high polyreactivity"}
{"sequence": "QVQLVESGGGLVQAGGSLRLSCAASGSTFGWYAMGWYRQAPGKERELVAAISNSGGSTYYADSVKGRFTISRDNAKNTVYLQMNSLKPEDTAVYYCATYHTTSYYQLVFDYWGQGTQVTVSS", "polyreactivity (PSR sort gate)": "low polyreactivity"}
{"sequence": "QVQLVESGGGLVQAGGSLRLSCAASGSTFGWYAMGWYRQAPGKERELVASISSGGSTNYADSVKGRFTISRDNAKNTVYLQMNSLKPEDTAVYYCAARGGYWWYRYGYWGQGTQVTVSS", "polyreactivity (PSR sort gate)": "high polyreactivity"}
{"sequence": "QVQLVESGGGLVQAGGSLRLSCAASGSTFGWYTMGWYRQAPGKERELVAAMTSRGTRTSYADSVKGRFTISRDNAKNTVYLQMNSLKPEDTAVYYCAARVFRGLGEYYWGQGTQVTVSS", "polyreactivity (PSR sort gate)": "high polyreactivity"}
{"sequence": "QVQLVESGGGLVQAGGSLRLSCAASGSTFGYNAMGWYRQAPGKERELVAAINFRSDRTFYADSVKGRFTISRDNAKNTVYLQMNSLKPEDTAVYYCAAKPTTYYGNSDYWGQGTQVTVSS", "polyreactivity (PSR sort gate)": "high polyreactivity"}
{"sequence": "QVQLVESGGGLVQAGGSLRLSCAASGSTFGYNAMGWYRQAPGKERELVAAISYSGGSTSYADSVKGRFTISRDNAKNIVYLQMNSLKPEDTAVYYCARDSYSQYSSQALEGYGYWGQGTQVTVSS", "polyreactivity (PSR sort gate)": "low polyreactivity"}
{"sequence": "QVQLVESGGGLVQAGGSLRLSCAASGSTFGYNAMGWYRQAPGKERELVADITARGGSTYYADSVKGRFTISRANAKNTVYLQMNSLKPEVTAVYYCAARRKRFYYYAGYDYWGQGTQVTVSS", "polyreactivity (PSR sort gate)": "high polyreactivity"}
{"sequence": "QVQLVESGGGLVQAGGSLRLSCAASGSTFGYNAMGWYRQAPGKERELVARITSSGGSTYYADSVKGRFTISRDNAKNTVYLQMNSLKPEDTAVYYCAAGYLSGNYARYGYWGQGTQVTVSS", "polyreactivity (PSR sort gate)": "high polyreactivity"}
{"sequence": "QVQLVESGGGLVQAGGSLRLSCAASGSTFGYNAMGWYRQAPGKERELVATITSTGGGTYYADSVKGRFTISRDNAKNTVYLQMNSLKPEDTAVYYCAAVYYSLDYVHGYPPHYDYWGQGTQVTVSS", "polyreactivity (PSR sort gate)": "low polyreactivity"}
{"sequence": "QVQLVESGGGLVQAGGSLRLSCAASGSTFGYNAMGWYRQATGKERELVARITSSGGSTYYADSVKGRFTISRDNAKNTVYLQMNILKPEDTAVYYCAAGYLSGNYARYGYWGQGTQVTVSS", "polyreactivity (PSR sort gate)": "high polyreactivity"}
{"sequence": "QVQLVESGGGLVQAGGSLRLSCAASGSTFGYNAMGWYRQSPGKERELVAAISYSGGSTYYADSVKGRFTISRDNAKNTVYLLMNSLKPEDTAVYYCAKETNRVGRYHWGQGTQVNVSS", "polyreactivity (PSR sort gate)": "low polyreactivity"}
{"sequence": "QVQLVESGGGLVQAGGSLRLSCAASGSTFGYNTMGWYRQAPGKERELVAAITSGGRTYYADSVKGRFTISRDNAKNTVYLQMNILKPEDTAVYYCAAYYWWGYPENDYWGQGTQVTVSS", "polyreactivity (PSR sort gate)": "high polyreactivity"}
{"sequence": "QVQLVESGGGLVQAGGSLRLSCAASGSTFGYYAMGWSRQAPGKERELVAAIRWSGGSTYADSVKGRFTISRDNAKNTVYLQMNSLKPEDTAVYYCAQYRWYGSVLGGYWGQGTQVTVSS", "polyreactivity (PSR sort gate)": "high polyreactivity"}
{"sequence": "QVQLVESGGGLVQAGGSLRLSCAASGSTFGYYAMGWYRQAPGKERELVAAIRYSGGTTYYADSVKGRFTISRDNAKNTVYLQMNSLKPEDTAVYYCAAVYTSGYYYWGQGTQVTVSS", "polyreactivity (PSR sort gate)": "high polyreactivity"}
{"sequence": "QVQLVESGGGLVQAGGSLRLSCAASGSTFGYYAMGWYRQAPGKERELVAAISWSGTRTYYADSVKGRFTISRDNAKNTVYLQMNSLKPEDTAVYYCAVRISRPREYYYWGQGTQVTVSS", "polyreactivity (PSR sort gate)": "high polyreactivity"}
{"sequence": "QVQLVESGGGLVQAGGSLRLSCAASGSTFGYYAMGWYRQAPGKERELVAAISYRSGSTYYADSVKGRFTISRDNAKNTVYLQMNSLKPEDTAVYYCAAVIQGQQRYEYWGQGTQVTVSS", "polyreactivity (PSR sort gate)": "high polyreactivity"}
{"sequence": "QVQLVESGGGLVQAGGSLRLSCAASGSTFGYYAMGWYRQAPGKERELVAAISYSGGSTYYADSVKGRFTISRDNAKNTVYLQMNSLKPEDTAVYYCAARLTRQMYYWGQGTQVTVSS", "polyreactivity (PSR sort gate)": "high polyreactivity"}
{"sequence": "QVQLVESGGGLVQAGGSLRLSCAASGSTFGYYAMGWYRQAPGKERELVAAITRRSGRTYYADSVKGRFTISRDNAKNTVYLQMNSLKPEDTAVYYCNKVYPTYYYYRGGPTEYDYWGQGTQVTVSS", "polyreactivity (PSR sort gate)": "high polyreactivity"}
{"sequence": "QVQLVESGGGLVQAGGSLRLSCAASGSTFGYYTMGWYSQAPGKEWELVAAITWSGGSTYYADSVKGRFTISRDNAKNTASLQMNSLKPEDTAVYYCNTDQDLVRSYDYWGQGTQVTVSS", "polyreactivity (PSR sort gate)": "low polyreactivity"}
{"sequence": "QVQLVESGGGLVQAGGSLRLSCAASGSTFHAYAMGWYRQAPGKERELVAGISWSGGDTTYADSVKGRFTISGDNAKNTVYLQMNSLKPEDTAVYYCAAAGRDPDNYLILNYWGQGTQVTVSS", "polyreactivity (PSR sort gate)": "low polyreactivity"}
{"sequence": "QVQLVESGGGLVQAGGSLRLSCAASGSTFHGYAMGWYRQEPGKERELVAAITSGDSTNYADSVKGRFTISRDNAKNTVYLQMNSLKPEDTAVYYCNAEGSSVLTGYWGYPPYWDTYDYWGQGTQVTVSS", "polyreactivity (PSR sort gate)": "low polyreactivity"}
{"sequence": "QVQLVESGGGLVQAGGSLRLSCAASGSTFHNYAMGWYRQAPGKERELVAGISVRGGGTYYADSVKGRFTISRDNAKNTVYLQMNSLKPEDTAVYYCAKRSRYYYRYDYWGQGTQVTVSS", "polyreactivity (PSR sort gate)": "high polyreactivity"}
{"sequence": "QVQLVESGGGLVQAGGSLRLSCAASGSTFHPNAMGWYRQAPVKERELVAAISRGGSTNYADSVKGRFTISRDNAKNTVYLQMISLKPEDSAVYYCAKDFFGISSDPVVMDYWGQGTQVTVSS", "polyreactivity (PSR sort gate)": "low polyreactivity"}
{"sequence": "QVQLVESGGGLVQAGGSLRLSCAASGSTFHRNAMGWYRQAPGKERELVAAISFSGGRTYYADSVKGRFTISRDNAKNTVYLQMNSLKPEDTAVYYCAAVTASPGSYPDDYWGQGTQVTVSS", "polyreactivity (PSR sort gate)": "low polyreactivity"}
{"sequence": "QVQLVESGGGLVQAGGSLRLSCAASGSTFHRNAMGWYRQAPGKERELVASISIGGSTNYADSVKGRYTISRDNAKNTVYLQMNSLKPEDTAVYYCATEPNPRRPRVDYDYWGQGTQVTVSS", "polyreactivity (PSR sort gate)": "low polyreactivity"}
{"sequence": "QVQLVESGGGLVQAGGSLRLSCAASGSTFHRYAMGWYRQAPGKERELVATINLNTGSTYADSVKGRFTISRDNAKNTVYLQMNSLKPEDTAVYYCAAYGRWPFTWYNYWGQGTQVTVSS", "polyreactivity (PSR sort gate)": "low polyreactivity"}
{"sequence": "QVQLVESGGGLVQAGGSLRLSCAASGSTFHRYAMGWYRQAPGKERQLVARINGSGGSTYYADSVKGRFTISRDNAKNTVYLQMNSLKPEDTAVYYCNARAVSVRASTKVPSGLYDFWGQGTQVTVSS", "polyreactivity (PSR sort gate)": "low polyreactivity"}
{"sequence": "QVQLVESGGGLVQAGGSLRLSCAASGSTFHRYPMGWYRQAPGKERELVAAISVRTGSTYYADSVKGRFTISRDNAKNTDYLQINRLTPEDTAVYYCAVGKQINGKIYRYDYWGQGTQVTVSS", "polyreactivity (PSR sort gate)": "high polyreactivity"}
{"sequence": "QVQLVESGGGLVQAGGSLRLSCAASGSTFHSNAMGWYRQAPGKEREVVATISFGGGSKYYADSVKGRFTISRDNAKNTVYLQMNSLKPEDTAVYYCARDQTFGPCPYVWYYYPGYDYWGQGTQVTVSS", "polyreactivity (PSR sort gate)": "low polyreactivity"}
{"sequence": "QVQLVESGGGLVQAGGSLRLSCAASGSTFHSYAMGWYRQAPGKERELVAGITWGGGTYYADSVKGRFTISRDNAKNTVYLQMNSLKPEDTAVYYCAALSYVGSNVYTGAPAAPYDYWGQGTQVTVSS", "polyreactivity (PSR sort gate)": "low polyreactivity"}
{"sequence": "QVQLVESGGGLVQAGGSLRLSCAASGSTFHTNAMGWYRQAPGKERELVDAISRSGTSTYYADSVKGRFTISRDNAKNSVYCQMNSLNPEDTAVYYCAAYGPRVNGEIGREYYYWGQGTQVTVSS", "polyreactivity (PSR sort gate)": "low polyreactivity"}
{"sequence": "QVQLVESGGGLVQAGGSLRLSCAASGSTFHTYGMGWYRQAPGKERELVSAIDLSDGSTYYADSVKGRFTISRDNAKNTVYLQMNSLKPEDTAVYYCNADYFPKPYRPDDYWGQGTQVTVSS", "polyreactivity (PSR sort gate)": "low polyreactivity"}
{"sequence": "QVQLVESGGGLVQAGGSLRLSCAASGSTFHVYAMGWYRQAPGKERELVAGITSSGYSTYYADSVKGRFTISRDNAKNTVYLKMNSLKPEETAVYYCNADIRGPYYYHRYDYWGQGTLVTVSS", "polyreactivity (PSR sort gate)": "low polyreactivity"}
{"sequence": "QVQLVESGGGLVQAGGSLRLSCAASGSTFHWYDMGWYRPAPGKERELVAGINSSGDGTYYADSVKGRFTISRDNAKNTVYLQMNSLKPEDTAVYYCAAPWWYYGVPYQTNKYDYWGQGTQVTVSS", "polyreactivity (PSR sort gate)": "low polyreactivity"}
{"sequence": "QVQLVESGGGLVQAGGSLRLSCAASGSTFHYNAMGWYRQAPGKERELVAAIDNGGRTNYADSVKGRFTISRDNAKNTVYLQMNSLKPEDPAVYYCATRGYFWSFTTSYYHYYYWGQGTQVTVSS", "polyreactivity (PSR sort gate)": "high polyreactivity"}
{"sequence": "QVQLVESGGGLVQAGGSLRLSCAASGSTFIANAMGWYRQAPGKERELVAAISASGDSTYYADSVKGRFTISRDNAKNTVYLQMNSLKPEDTAVYYCAADTSVHRHDYWGQGTQVTVSS", "polyreactivity (PSR sort gate)": "low polyreactivity"}
{"sequence": "QVQLVESGGGLVQAGGSLRLSCAASGSTFIANAMGWYSQAPGKERELVAGITRGGSTYYADSVKGRFTISRDNAKHTVYLQMNSLNPEDTAVYYCATDLRSYYYQWTYYHWGQATQVTVSS", "polyreactivity (PSR sort gate)": "low polyreactivity"}
{"sequence": "QVQLVESGGGLVQAGGSLRLSCAASGSTFIDYAMGWYRQAHGKERELVAGISSGDSTDYADSVKGRFTISRDNAKNTVYLQMNSLKPEDTAVYYCNADWNPTERWFYWYTPLGYDYWGQGTQVTVSS", "polyreactivity (PSR sort gate)": "low polyreactivity"}
{"sequence": "QVQLVESGGGLVQAGGSLRLSCAASGSTFIFNAMGWYRQAPGKERELVAAISWRLGRTYYADSVKGRFTISRDNAKKTVYLQMNSLKPEDTAVYYCARDYSRHKGDYWGQGTQVTVSS", "polyreactivity (PSR sort gate)": "low polyreactivity"}
{"sequence": "QVQLVESGGGLVQAGGSLRLSCAASGSTFIFYAMGWYRQAPGKERELVAAISSGGITNYADSVKGRFTISRDNAKNTVYLQMNSLKPEDTAVYYCAKRKGPRWSRQYRYPYYSWGQGTQVTVSS", "polyreactivity (PSR sort gate)": "high polyreactivity"}
